Legend:
[1] = biological target: T1, human IL-36R overexpressed on 293T-hIL36R-NFκB cells (human, UniProt Q9HB29 20-575); assay: cell-based or functional assay
T1 sequence: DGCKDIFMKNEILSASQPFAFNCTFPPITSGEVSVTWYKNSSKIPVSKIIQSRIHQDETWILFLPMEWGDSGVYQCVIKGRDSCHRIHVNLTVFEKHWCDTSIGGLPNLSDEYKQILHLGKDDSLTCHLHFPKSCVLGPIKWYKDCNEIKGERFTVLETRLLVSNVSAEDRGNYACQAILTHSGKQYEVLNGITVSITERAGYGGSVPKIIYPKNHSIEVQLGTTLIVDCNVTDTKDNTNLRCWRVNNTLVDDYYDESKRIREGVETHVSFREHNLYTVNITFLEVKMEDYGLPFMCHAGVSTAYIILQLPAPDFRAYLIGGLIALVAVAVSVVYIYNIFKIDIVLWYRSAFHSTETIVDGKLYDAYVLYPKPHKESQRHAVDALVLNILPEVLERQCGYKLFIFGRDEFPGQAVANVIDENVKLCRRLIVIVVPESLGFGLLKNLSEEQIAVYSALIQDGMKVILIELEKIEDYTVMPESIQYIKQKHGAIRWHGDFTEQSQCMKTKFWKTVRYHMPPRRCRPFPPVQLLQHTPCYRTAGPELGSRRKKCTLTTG

[2] = biological target: T1, human IL-36R overexpressed on …; assay: cell-based or functional assay; remark: listed apart in the source
[3] = biological target: T1, human IL-36R overexpressed on …; assay: cell-based or functional assay; remark: listed apart in the source
[4] = biological target: T2, IL-36R naturally expressed on OVCAR8 cells and on normal human epidermal keratinocytes (NHK cells) (human, UniProt Q9HB29 20-575); assay: cell-based or functional assay
T2 sequence (looked up): T1 sequence

[5] = biological target: T2, IL-36R naturally expressed on OVCAR8 …; assay: cell-based or functional assay; remark: listed apart in the source
[6] = biological target: T2, IL-36R naturally expressed on OVCAR8 …; assay: cell-based or functional assay; remark: listed apart in the source
[7] = biological target: T3, Human IL-1Rrp2/IL-1R6 protein, His Tag (ACROBiosystems, IL2-H52H6) (human, UniProt Q9HB29 20-335); assay: BLI (ForteBio Octet), antibody on ProA sensor, 1:1 model
T3 construct: Bought protein; the soluble protein is likely only the extracellular part; also called hIL-36R; human IL36R antigen; not shown: His tag
T3 sequence: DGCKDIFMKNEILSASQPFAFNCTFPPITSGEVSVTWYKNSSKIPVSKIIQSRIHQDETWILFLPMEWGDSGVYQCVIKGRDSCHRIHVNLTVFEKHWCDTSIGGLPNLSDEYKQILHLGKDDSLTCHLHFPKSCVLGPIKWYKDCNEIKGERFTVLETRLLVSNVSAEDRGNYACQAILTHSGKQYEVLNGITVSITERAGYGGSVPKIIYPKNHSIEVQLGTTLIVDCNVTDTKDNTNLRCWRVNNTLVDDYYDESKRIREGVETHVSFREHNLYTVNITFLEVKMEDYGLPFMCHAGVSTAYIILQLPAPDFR
Description: The affinity of anti-IL-36R antibodies to CynoIL36R-ECD mFc and human IL-1Rrp2/IL-IR6 protein, His Tag (ACROBiosystems, IL2-H52H6) was measured by a ForteBio molecular interaction instrument. […] And then the biosensor was used to bind CynoIL36R-ECD mFc or human IL-1Rrp2/IL-1R6 protein, His Tag which was diluted by a gradient (the initial concentration was 200 nM, 2-fold gradient dilution), the response signals were detected in real time using a Fortebio molecular interaction instrument (SARTORIUS, octet red 96e), and association and dissociation curves were obtained. After the completion of dissociation in each cycle, the biosensor was regenerated for the next capture; the procedure was repeated until the affinity of the different anti-IL-36R antibodies for IL-36R was determined. The resulting data were analyzed by Fortebio Data Analysis 11.0 software in a 1:1 (Langmuir) binding model to determine kₐ (kₒₙ) and kd (koff) values, and the dissociation constant KD was calculated by KD=kd/kₐ. The detection method essentially followed the manufacturer's recommendations, and more information could be found at www.fortebio.com.

[8] = biological target: T1, human IL-36R overexpressed on …; assay: FACS on 293T-hIL36R-NFκB cells, ratio of MFI to background MFI
Description: After the cells was washed with PBS, the cells were resuspended with 100 μL of PBS and then the fluorescence signal was detected using a flow cytometer (BD, Accuri C6). […] The ratio was the ratio of mean fluorescence intensity (MFI) of the experimental group/the background MFI, and the resulting data were analyzed using GraphPad Prism.

B1: chimeric 74B4D6 antibody (antibody, human IgG4 S228P, kappa, V domains shown)
VH: EVQLQQPGAELGKPGASVKMACKASGYTFTNYWIHWVKQRPGQGLEWIGTIDPSENYTNYNQKFKGKATLTVDTSSSTAYMQLSSLTSEDKAVYFCTGSSFSYWGQGTLVTVSA
VL: QNVLTQSPAIMSVSPGEKVTMTCSASSSVSFIHWFQQKPGTSPKLWIYTTSNLASGVPARFSGSGSGTSYSLTISRMEAEDAATYYCQQRSSYPLTFGAGTKLELKR
notes: Mouse variable regions on human IgG4 / kappa; also called xi74B4D6
[1]
  IC50; NFκB-luciferase reporter in 293T-hIL36R-NFκB cells stimulated with hIL36α, inhibition rate %: 12.9 nM
[2]
  IC50; NFκB-luciferase reporter in 293T-hIL36R-NFκB cells stimulated with hIL36β, inhibition rate %: 21.5 nM
[3]
  IC50; NFκB-luciferase reporter in 293T-hIL36R-NFκB cells stimulated with hIL36γ, inhibition rate %: 25.4 nM
[4]
  IC50; IL-8 production of OVCAR8 cells stimulated with hIL36α, inhibition rate %: 0.73 nM
[5]
  IC50; IL-8 production of OVCAR8 cells stimulated with hIL36β, inhibition rate %: 0.972 nM
[6]
  IC50; IL-8 production of OVCAR8 cells stimulated with hIL36γ, inhibition rate %: 1.05 nM
[7]
  Kd: 4.72 nM
  koff: 0.000332 s⁻¹
  kon: 70400 M⁻¹ s⁻¹
[8]
  EC50: 15.5 nM

From patent US20240270857A1 (CHIA TAI TIANQING PHARMACEUTICAL GROUP, published 2024)
